Conditions: Thermococcus kodakarensis (strain ATCC BAA-918 / JCM 12380 / KOD1); pH 9; 50 °C; GdnHCl; CD; Tris-HCl 20 mM; reversible: Yes; whole UniProt chain shown

B1: Ribonuclease HII wild type, O74035 (protein)
chain: MKIAGIDEAGRGPVIGPMVIAAVVVDENSLPKLEELKVRDSKKLTPKRREKLFNEILGVLDDYVILELPPDVIGSREGTLNEFEVENFAKALNSLKVKPDVIYADAADVDEERFARELGERLNFEAEVVAKHKADDIFPVVSAASILAKVTRDRAVEKLKEEYGEIGSGYPSDPRTRAFLENYYREHGEFPPIVRKGWKTLKKIAEKVESEKKAEERQATLDRYFRKV
denaturant m value: 5.64 kcal/mol/M | denaturant midpoint (higher = more stable): 1.85 M | unfolding free energy: 10.4 kcal/mol

Reference: FireProtDB (doi:10.1016/j.jmb.2008.02.039)
